The data set deals with the molecule itself. The experiment in a line: AUC.

B1: recombinant human mitochondrial single-stranded DNA binding protein, mature form (natural protein, UniProt Q04837 17-148, looked up)
chain: ESETTTSLVLERSLNRVHLLGRVGQDPVLRQVEGKNPVTIFSLATNEMWRSGDSEVYQLGDVSQKTTWHRISVFRPGLRDVAYQYVKKGSRIYLEGKIDYGEYMDKNNVRRQATTIIADNIIFLSDQTKEKE
On to B1, for which the “stoichiometry N” value was 4.

Usually stoichiometry N stands for a count of units in the complex or per binding partner.

The values above are taken from PMC3953565 (Methods in molecular biology (Clifton, N.J.), 2009).
